Measurements published in the DeepSol protein solubility set.

Assay: soluble on expression in E. coli; label from the status in PepcDB or PDB records

Soluble on expression in E. coli, not soluble:
MGSDKIHHHHHHMKKIRLGIYIEDSEYGDRLTCYFMNHYKVQLEIHMYTMKEQLEHLEGEIDIMLSSELDQWNNKYIPLIQIVEETPIESEEGIYFVEKYQEVNRIVEEILKHVGGEVRDLKSEGSLIGQTRLISVYSLADNQYQMPFAMTLSSILSENEKVLLMDFQENSGLSRMLEQSVEHNLDELLVMAESGRYSTNRINSCIGRKHKLDYVYPIENTECLCEINTVICNNLLQMLGKEMHYDCIVLNMGTRFKGFFDILDRCSDIYLVQKKGGISQWREYEFTEELMERGLSNVVERIKLIEPPVITTPVSTCDKLVELWKWNEFGDVIRNMTRGISCAG, MTTETRSLYSQLPAIDRLLRDSSFLSLRDTYGHTRVVELLRQMLDEAREVIRGSQTLPAWCENWAQEVDARLTKEAQSALRPVINLTGTVLHTNLGRALQAEAAVEAVAQAMRSPVTLEYDLDDAGRGHRDRALAQLLCRITGAEDACIVNNNAAAVLLMLAATASGKEVVVSRGELVEIGGAFRIPDVMRQAGCTLHEVGTTNRTHANDYRQAVNENTALLMKVHTSNYSIQGFTKAIDEAELVALGKELDVPVVTDLGSGSLVDLSQYGLPKEPMPQELIAAGVSLVSFSGDKLLGGPQAGIIVGKKEMIARLQSHPLKRALRADKMTLAALEATLRLYLHPEALSEKLPTLRLLTRSAEVIQIQAQRLQAPLVAHYGAEFAVQVMPCLSQIGSGSLPVDRLPSAALTFTPHDGRGSHLESLAARWRELPVPVIGRIYDGRLWLDLRCLEDEQRFLEMLLK, EPDLDDWFENDREDLRHFVGIYVLAHYRNRPSDVALLADAPHHEARVLRLKNGKIVTAIQIAKEGGIPKAVIDKMAKGYKPPGNIIPDMMVKHHYAKEFARLKGYRVVRIATHPDAMDMGLGSKALELLIKEAEEKGLDWVGSGFGASPELIRFWVRNGFAVVHLSPTRNPVSGEYTAIVIKP, PIGKSADNMYSYLALVQDDPTVQVVNMAQKAYVEHYIQGDPDLAKLPVLSAAAPFKVGGRKNDPASFVEVEKGQLTFRNAADLYLYPNTLVVMKVSGKEVKEWLECSAGQFNQIDPASSKPQSLINWDGFRTYNFDVIDGVNYQIDVTQPARYDGECQMIHPQAERIKHLTFNGKPVDPQATFLVATNNYRAYGGKFAGTGESHIAFASPDENRSVLAAWIGAQSKKEGAIHPAADNNWRLAPI, MGSDKIHHHHHHLRILNTAATGVRAQQTALDVLGNNMSNVNTPGYKAQRVNFAEALAAEMRPAEREFNGQPVGERIDVGAGVIYPTIDTDYRQGIIRETENPFDLAIDGEGFFPVRTANGESRYTRVGNFELDSQGKLVNSDGYILEVKIPADAMDLYVDETGNITGFIDDEERVLGRVVVNDPEGEGYPVGPIDMDELGRPLDWNGDILPTAFAVPEGAEDVQISTEGILSATIDGSRQTLGQINIITFANPEGLVRDGDNLYFAPDAAGVTGDELVGTPGSQVEERTLGKLKTQSLEQSNVNLASAMTEMIQVQRAYQLNARMITNGDQMWSMANSLRR, MGHHHHHHSHMACKCDCKNKQCKCGDKCECSGDKCCEKYCCEEASEKKCCPAGCKGDCKCANCHCAEQKQCGDKTHQHQGTAAAH, MESVKCFDMITAFFDLSDSVHVVRKNGGLAFGKTWLGNFFVLVREVKILRATTEKFSLVNLRKLEPHSGQFRNQIREESAYRHPFLRIVVKVILAKRLRPLPYLTSKSK, MLEKIYSVLGTGSCLVKDGEIIESYLLSDEEVKLIEKIAKVIPFLPEKFKVGFFEHEGGRIIAIKHGEVFICFPARSDNVMSELRKVEVEVYDKILSP, MGHHHHHHSHMLLAASKVLDRLKPVIGVNTDPERSEGHLCLPVRYTHSFPEALQKFYRGEFRWLWRQRIRLYLEGTGINPVPVDLHEQQLSLNQHNRALNIERAHDERSEASGPQLLPVRALNEVFIGESLSSRASYYEISVDDGPWEKQKSSGLNLCTGTGSKAWSFNINRVATQAVEDVLNIAKRQGNLSLPLNRELVEKVTNEYNESLLYSPEEPKILFSIREPIANRVFSSSRQRCFSSKVCVRSRCWDACMVVDGGTSFEFNDGAIASMMINKEDELRTVLLEQ, MAHHHHHHMQQLEQELSLRQSAIETREQQLEMVQLDGARGREAIMRERHSIEEVRRTVRVERCRQRRLWIHQIKEMNAKVLEQVRLLAEERKKNCEQATAKEDAAERAFAADIKMIEEYLPKLISLEDIPVNPEETDIIRRQFDEVFTQGEQTYLASAEEEQARKERLGRGLEVYRQRMLDDYVGKENGKLHDAEATERHLSSVVDQVLN, MAHHHHHHMYDSRSSGVHDVAPRDGVDFMYEGPQQVLPGAHPLPLFHPDNSVTRPPVSPYLPSPQRPHPYFTTELPELPHFQTTRPIVYTVGTMKQRIVAPVFDLANNVTHTRELDPFIFGFYPETEEMAKNLSYWLVRCQNFSSKWDYENREIWRKAKKNWPNTGMGMARVGDRKNHAHPWGAHSKPVKPWNLLMPTMDVKTWSKSNRMLVTLKMLQGKLQIVERLTLPEPTQEAYLQLCRTMGWDVRHKGGGALFMDGGSRLTPSSEYDRAFFFGSFFNGRNKLVRPTLLCDEPYDYNRTSSKARTKGPKGQKNPIPINRFNAYDALTHDTLIITEGALLQLEDEMYTHKLAMLPPHIRAQLPERGFLDSEVLGDVPPALQTVQMEAAARTEEAEQAMYAPYYDNPYHPWQDEGEASYAVDAVEGTVQRYIKSRKTSWAMLS, TKTEALTAEEAAKQYTNSLVEKALKAEKVYATYTQEQVDKIVAAMALAGSEASLQLAKEAHDETGRGVVEDKDTKNHFATEYVYERIKNEKTVGIIGEDKVAGSIEIAAPLGVLAGIVPTTNPTSTTMFKILVALKTRNAIVFAFHPAAQKCSAHAAQILYDAAVKAGAPENIVQWIETPSIANTGALISNKGIASILATGGPGMVNAALKSGNPSMGVGAGNGAVYVDATANLERAVEDLLLSKRFDNGMICATE, MPSGVDGVGLLVRWLIEGSRGGVTRARILMLLRERPRNAHQLSQELGLNYRTVLHHLEVLARHGLIARLYEGYGAPYALTNLAERHWSVIEDSIRRVGVRL, MKKVLIKGAMALLLSSYSMIVSAEDKTITLMLDWFVNPNHGPVVVAQQKGYFKEEGLNITIQEPADPSMPAKLVAANNIDLAISYQTSLTIDVAAGLPLIRSATLIATPLNTLMVLDNGKINSLADLKGKKIGIAIAGNEEATIGTMLKTENVNFSDVNIINVGWALSSSLASGKVDAIWGGLRNFETNQLALEGYKAKSFFPEEHGVPSYDELVFVANAKTYDADALKKFNHAIEKATQFIVNHPEESWKTFISYAPDTLNNELNKRAWNDTLTRFALRPSAVDLQRYDRFSDFMYRHQMIKTQPKAQNFVPVL, MTRRGVALVARRLPSSPGRVYAVKIDEGEDVHSVLSSLAEAEDLGFAMVTGIGGMAEATVAFYSPPEATYYTVDVKPPEGRVIEVAAMTGNIVKTSQGYSVHIHVALGVSPGKSISGHLVKGVVKPFMEVFVVELVSGQGTPGTSVFDHREGFKASYKRLEAAALEHHHHHH

Soluble on expression in E. coli, soluble:
MAHHHHHHMLLFKRPHLRACESHADIAVDLAPLSQLRNYAEFEELLREELQKIYGNAPAEFHGVITYSTRDAPQSFRGCFTERQLETLHQYDAAVEKINHLSSEYRVALEEHERLVEGNKDRKPTQKRIREEEKSRKRLRAMKREVVAAEYNKECLSLKLKNLFSIDVIRVPLH, MSLSSPNILLTRIDNRLVHGQVGVTWTSTIGANLLVVVDDVVANDDIQQKLMGITAETYGFGIRFFTIEKTINVIGKAAPHQKIFLICRTPQTVRKLVEGGIDLKDVNVGNMHFSEGKKQISSKVYVDDQDLTDLRFIKQRGVNVFIQDVPGDQKEQIPDEGHHHHHH, PHMSGLKKFFPYSTNVLKGAAADIALPSLAGKTVFFYFSASWCPPCRAFTPQLIDFYKAHAESKNFEVMLISWDESAEDFKDYYAKMPWLALPFEDRKGMEFLTTGFDVKSIPTLVGVEADSGNIITTQARTMVVKDPEAKDFPWPNVEAKK, HHHHHHPEIVDTCSLASPASVCRTKHLHLRCSVDFTRRTLTGTAALTVQSQEDNLRSLVLDTKDLTIEKVVINGQEVKYALGERQSYKGSPMEISLPIALSKNQEIVIEISFETSPKSSALQWLTPEQTSGKEHPYLFSQCQAIHCRAILPCQDTPSVKLTYTAEVSVPKELVALMSAIRDGETPDPEDPSRKIYKFIQKVPIPCYLIALVVGALESRQIGPRTLVWSEKEQVEKSAYEFSETESMLKIAEDLGGPYVWGQYDLLVLPPSFPYGGMENPCLTFVTPTLLAGDKSLSNVIAHEISHSWTGNLVTNKTWDHFWLNEGHTVYLERHICGRLFGEKFRHFNALGGWGELQNSVKTFGETHPFTKLVVDLTDIDPDVAYSSVPYEKGFALLFYLEQLLGGPEIFLGFLKAYVEKFSYKSITTDDWKDFLYSYFKDKVDVLNQVDWNAWLYSPGLPPIKPNYDMTLTNACIALSQRWITAKEDDLNSFNATDLKDLSSHQLNEFLAQTLQRAPLPLGHIKRMQEVYNFNAINNSEIRFRWLRLCIQSKWEDAIPLALKMATEQGRMKFTRPLFKDLAAFDKSHDQAVRTYQEHKASMHPVTAMLVGKDLKVD, MPKVNLYATFRDLTGKSQLELPGATVGEVLENLVRAYPALKEELFEGEGLAERVSVFLEGRDVRYLQGLSTPLSPGATLDLFPPVAGGGFERTFGAFPPWLLERYLEEWGGTREGEGVYRLPGAVVRFREVEPLKVGSLSIPQLRVEVEGEEAERWFERIAFAASRGGG, MIARPTPALGPTPIPRGGGILPRMDRIVIRGAREHNLKNISLELPRGKFIVITGVSGSGKSTLAFDTIYAEGQRRYVESLSSYARQFLGVMDKPEVESIEGLSPAISIDQKTTSHNPRSTVGTVTEIHDYLRLLFARVGQAFCPECGRPIEKQSASEITDRLLKRPPGTRAILMAPLVRGRKGEYRKLFQQLLKEGYARVRVDGVIYLLEEAQGLSLEKYEKHDIDLVIDRVVLKEEERPRIAEAVELALLRGEGLLRVLYPDTGEEELFSEKFACPEHGSVLEELEPRIFSFNSPYGACPACSGLGYRQEFDPELVVNPELSLAEGAILPWSRGRDTGRSYLWDRLRALAEHLGFDLKTPFKDLPEEAKRAVLYGLPEPFEVVFRRGGKETFRVEVRYEGVIPWLEKRYQESDSEGVREALEGFMSLRPCPACGGTRYKREVLSVKVAGRNIAEVSALPVREALAFFQGLEKTLPPFQAQIARPILREIVERLGFLVDVGLDYLTLDRAANTLSGGEAQRIRLATQVGSGLTGVLYVLDEPSIGLHPRDNQRLIRTLKRLRDLGNTLIVVEHDEETMRAADWIVDMGPGAGIHGGEVVAQGTLEDILKSPQSLTGAYLRGEKRIPVPKERRKGNGKWLVLKGARAHNLKNVTLRIPLGRFVAITGPSGSGKSTLVHDVLYAALAQRLMRAKTTPGPYEALEGVEHLDKVIEIDQSPIGRTPRSNPATYTGVFDEIRDLFAKTPEARKRGYGPGRFSFNVKGGRCEACGGDGTVKIEMLFLPDLYVPCEVCKGKRYNKETLEVKLRGKSIADVLDMTVEEALDFFQNVPSIARKLQLMVDVGLGYMKLGQPSPTLSGGEAQRIKLATELGRKATGRTLYILDEPTTGLHFDDVAKLLSVLHRLVDAGNTVVVIEHNLDVVKTADWVIDLGPEGGDRGGEIVAEGTPEEVALTGSPTGAFLARIPEIAARIGVAAD, MSEMGKYKPPAERKYGKGVQSCQRCGSKDSVIQKYGIYLCRQCFREVAYELGFRKYW
